Reference: PMC12170185, “Dynamic RNA binding and unfolding by nonsense-mediated mRNA decay factor UPF2” (RNA, 2024)

Key:
[1] = molecular target: T1, UPF2L (near full-length UPF2, residues 121-1227) (UniProt Q9HAU5 121-1227); assay: native gel or EMSA; 250 nM HEX-labelled hp-RNA mixed with the proteins, 1 h on ice; native 4%-20% Tris-glycine gel, 45 min at 150 V, 4°C; HEX label of the RNA detected; RNA diluted in 25 mM HEPES pH 7.45, 100 mM NaCl, 5% glycerol; details: both partners purified
T1 construct: Construct from Neu-Yilik et al. 2017; also called up-frameshift protein 2; source: E. coli BL21 Rosetta (DE3), purified (Ni-NTA, heparin, SEC)
T1 sequence (looked up): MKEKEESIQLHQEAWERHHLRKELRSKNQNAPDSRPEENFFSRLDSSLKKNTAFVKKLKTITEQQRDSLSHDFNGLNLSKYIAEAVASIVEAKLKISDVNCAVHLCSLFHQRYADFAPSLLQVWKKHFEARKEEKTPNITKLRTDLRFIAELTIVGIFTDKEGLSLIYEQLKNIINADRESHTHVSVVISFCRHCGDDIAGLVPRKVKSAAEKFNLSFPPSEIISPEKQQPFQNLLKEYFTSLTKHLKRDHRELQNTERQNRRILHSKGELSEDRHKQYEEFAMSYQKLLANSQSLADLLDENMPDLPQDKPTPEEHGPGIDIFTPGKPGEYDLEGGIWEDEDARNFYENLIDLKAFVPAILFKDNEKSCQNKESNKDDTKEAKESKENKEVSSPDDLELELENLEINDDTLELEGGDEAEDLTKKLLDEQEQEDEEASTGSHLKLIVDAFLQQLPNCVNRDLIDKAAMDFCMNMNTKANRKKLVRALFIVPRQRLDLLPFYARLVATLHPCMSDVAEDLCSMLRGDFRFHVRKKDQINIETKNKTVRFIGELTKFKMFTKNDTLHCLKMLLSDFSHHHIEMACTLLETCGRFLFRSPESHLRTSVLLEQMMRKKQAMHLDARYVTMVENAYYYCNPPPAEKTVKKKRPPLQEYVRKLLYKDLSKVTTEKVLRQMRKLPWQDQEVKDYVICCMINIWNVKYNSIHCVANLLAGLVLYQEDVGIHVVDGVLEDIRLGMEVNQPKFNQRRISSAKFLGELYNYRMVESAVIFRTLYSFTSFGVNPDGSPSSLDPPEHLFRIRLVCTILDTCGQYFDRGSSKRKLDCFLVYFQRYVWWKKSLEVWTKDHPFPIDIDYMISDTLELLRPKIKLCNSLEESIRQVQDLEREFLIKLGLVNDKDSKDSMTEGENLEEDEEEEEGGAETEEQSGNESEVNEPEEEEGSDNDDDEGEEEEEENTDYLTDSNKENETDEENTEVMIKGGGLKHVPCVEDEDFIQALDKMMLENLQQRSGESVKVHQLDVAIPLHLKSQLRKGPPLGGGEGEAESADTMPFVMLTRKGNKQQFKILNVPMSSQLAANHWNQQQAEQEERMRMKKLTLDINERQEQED

[2] = molecular target: T2, UPF2 MIF4G domain-3 (residues 761-1054) (UniProt Q9HAU5 761-1054); assay: as above; details: both partners purified
T2 construct: UPF2, third MIF4G domain, residues 761-1054; Construct from Kadlec et al. 2004; TEV site and His6 tag as said for m1; also called MIF4G-D3; D3; source: E. coli BL21 Rosetta (DE3), purified (Ni-NTA, heparin, SEC)
T2 sequence (looked up): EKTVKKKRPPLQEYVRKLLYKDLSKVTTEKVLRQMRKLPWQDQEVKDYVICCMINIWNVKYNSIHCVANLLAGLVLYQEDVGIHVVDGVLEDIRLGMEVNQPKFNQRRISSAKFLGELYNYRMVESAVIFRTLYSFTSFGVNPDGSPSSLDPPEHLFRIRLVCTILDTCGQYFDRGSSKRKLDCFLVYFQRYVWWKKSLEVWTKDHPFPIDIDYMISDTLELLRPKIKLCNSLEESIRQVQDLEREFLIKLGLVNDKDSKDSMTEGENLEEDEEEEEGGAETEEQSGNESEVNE

binding result [1]: binds | binding result [2]: binds
B1: UPF3B (residues 41-262) (domain or fragment, UniProt Q9BZI7 41-262, looked up)
chain: DRNKEKKEALSKVVIRRLPPTLTKEQLQEHLQPMPEHDYFEFFSNDTSLYPHMYARAYINFKNQEDIILFRDRFDGYVFLDNKGQEYPAIVEFAPFQKAAKKKTKKRDTKVGTIDDDPEYRKFLESYATDNEKMTSTPETLLEEIEAKNRELIAKKTTPLLSFLKNKQRMREEKREERRRREIERKRQREEERRKWKEEEKRKRKDIEKLKKIDRIPERDKL
notes: UPF3B residues 41-262: RNA-recognition motif, NOPS-Like domain and the first coiled coil-like domain; source: E. coli, purified as described (Bufton et al. 2022)
